In US20260275319A1, “ARCHAEAL PEPTIDE RECOMBINASE – A NOVEL PEPTIDE LIGATING ENZYME” (MAX-PLANCK-GESELLSCHAFT ZUR FÖRDERUNG DER WISSENSCHAFTEN …, priority 2019, published 2026):

Test system: (15)KDPGA(10F) and PGA(10) peptides
Assay: M. jannaschii Adriase peptide ligation rates with fluorescent peptides (SDS-PAGE/UV)
Assay type: biochemical
Method: To test this assumption, the Adriase reaction was performed with (X1)KDPGA(X2) peptides bearing a C-terminal fluorophore (SEQ ID NOs: 370-371 and 418; see also Table 6) and unmodified PGA(X3) synthetic peptides (SEQ ID NOs: 373-375; see Table 7) as model substrates. The recombination reaction is expected to result in the formation of a (X1)KDPGA(X3) fusion peptide, releasing the respective C-terminal peptides PGA(X2)(SEQ ID NOs: 414) with the C-terminal fluorescent label. The latter can be visualized in order to track the progress of the reaction.
For this purpose, ligations were performed and visualized as described above, except for the use of just 6 nM Adriase and the increasing concentrations of (15)KDPGA(10F) (SEQ ID NO: 418) and PGA(10)(SEQ ID NO: 374) peptides (2.5/5/10/20/40/80/160 µM of each peptide of the peptide pairs). The band intensity of the respectively fluorescently labeled PGA(10F)-peptide (see SEQ ID NO: 414), which is released by the ligation reaction was quantified using ImageJ v1.50i and subtracted from background signal in control reactions without PGA(10) peptide.
To determine how the reaction is influenced by recognition motif characteristics, ligation rates for other substrates were determined in the same manner, except for the use of 20 μM of the indicated substrates (see also Tables 6 and 7) and varying concentrations of Adriase (6/30/150/750 nM). […] In combination with the above experiments (FIGS. 9A and B), they provide the means to design substrates for efficient Adriase-mediated ligations.

B1: M. jannaschii Adriase: Methanocaldococcus jannaschii Adriase (MJ_0548) with C-terminal His6-tag (protein)
chain: SLIICYYGKNGAVIGGDRRQIFFRGSEENRKILEEKLYSGEIKSEEELYKLAEKLNIKIIIEDDREKVRKISDSVVCGEVRSLGIDAKRRRVYATKGKCAIVDILNDTVTNQTIKEGFGIVVLGNRFLKKKAEEELKRTAKLFPMMPIQQIEDAIKEIFEKLKWHPTVSKEYDIYSVNKYEKNFEEVIKKDIESLFKYREQLRKQLIDFGKVMSIVNKIVKNGEIGVIKDGKLHLYDDYIAIDKIDPNPKVFKVVDVEGNFKDGDIVVIENGDMKIKGTNEKVTTKYIIIHKGSHHHHHH
modifications: C-terminal His6-tag; M. jannaschii Adriase with C-terminal His-tag
maximum rate (6 nM Adriase, 85° C., equimolar substrates 2.5-160 μM, Michaelis-Menten model, single experiment): ~ 1.4 ligations per enzyme and second | ligation of (X1)KDPGA(X2) and PGA(X3) peptides (20 μM substrates, 6/30/150/750 nM Adriase, X1≥5 and X2=X3≥10): efficiently ligates | substrate concentration at half maximal reaction speed (each substrate, 6 nM Adriase, 85° C., Michaelis-Menten model): 23 µM
